Laboratory results from publication PMC8667043, “First-in-Class Inhibitors of the Ribosomal Oxygenase MINA53” (Journal of Medicinal Chemistry, 2021).

Assays:
[1] = substrate: CC[C@H](C)[C@H](NC(=O)[C@H](Cc1c[nH]cn1)NC(=O)[C@H](CCC(N)=O)NC(=O)[C@H](Cc1c[nH]cn1)NC(=O)[C@H](CC(N)=O)NC(=O)CNC(=O)CNC(=O)CNC(=O)[C@H](Cc1ccccc1)NC(=O)[C@@H]1CCCN1C(=O)[C@H](Cc1c[nH]cn1)NC(=O)[C@H](CCC(=O)O)NC(=O)[C@@H](NC(=O)[C@@H]1CCCN1C(=O)[C@@H](N)CC(N)=O)C(C)C)C(=O)NCC(=O)N[C@@H](CCCCN)C(=O)N1CCC[C@H]1C(=O)N[C@@H](CO)C(=O)N[C@H](C(=O)O)[C@@H](C)O; experiment: Determination of enzyme kinetic parameters (MS assay); type: biochemical; conditions: other: 2OG, Fe(II): NO66 (Ser183-Asn641), n = 4; peptide: NO66 (Gln116-Asn641), n = 3; means ± 95% confidence
Experimental: (§1) Assays were performed in a 96-well, 2 mL polypropylene plate (Greiner Bio-one). […] Ion chromatogram data for the Rpl27a (m/z +5 charge state) and Rpl8 substrates (m/z +4 charge state) were extracted, and the peak areas were integrated using RapidFire Integrator software (Agilent). The integrated peak areas were exported into Excel, and the percent hydroxylation was calculated. The initial rate slope for each peptide concentration was calculated using excel, and the data were fitted to the Michaelis–Menten equation using GraphPad prism 5.
(§2) The concentrations were prepared as an 8-point 2-fold dilution series with a starting concentration of 20 μM. Each time series was based on 6-time points (0, 1, 5, 10, 20, and 30 min for NO66 and 0, 1, 3, 5, 7, and 10 min for MINA53). […] Reactions were stopped by the addition of 5 μL of 10% (v/v) formic acid. The first four reaction data points (starting with the 1 min time point) were used for kinetic analysis.

[2] = substrate: CC[C@H](C)[C@H](NC(=O)[C@H](CCCNC(=N)N)NC(=O)[C@H](Cc1c[nH]cn1)NC(=O)[C@H](Cc1c[nH]cn1)NC(=O)[C@H](Cc1c[nH]cn1)NC(=O)[C@H](CC(C)C)NC(=O)CNC(=O)CNC(=O)[C@H](C)NC(=O)[C@H](CC(N)=O)NC(=O)CNC(=O)[C@H](CCCNC(=N)N)NC(=O)CN)C(=O)N[C@@H](CC(N)=O)C(=O)N[C@@H](Cc1ccccc1)C(=O)N[C@@H](CC(=O)O)C(=O)N[C@@H](CCCCN)C(=O)N[C@@H](Cc1ccc(O)cc1)C(=O)N[C@@H](Cc1c[nH]cn1)C(=O)N1CCC[C@H]1C(=O)O; experiment: as above; type: biochemical; conditions: other: 2OG, Fe(II): MINA53 (Met26-Val464), n = 4; peptide: MINA53 (Met1-Val464), n = 3; means ± 95% confidence
Experimental: as §1, §2

Protein	Km [1] [µM]	Vmax [1] [µM/min]	Km [2] [µM]	Vmax [2] [µM/min]
NO66 (Homo sapiens) (protein) MDGLQASAGPLRRGRPKRRRKPQPHSGSVLALPLRSRKIRKQLRSVVSRMAALRTQTLPSENSEESRVESTADDLGDALPGGAAVAAVPDAARREPYGHLGPAELLEASPAARSLQTPSARLVPASAPPARLVEVPAAPVRVVETSALLCTAQHLAAVQSSGAPATASGPQVDNTGGEPAWDSPLRRVLAELNRIPSSRRRAARLFEWLIAPMPPDHFYRRLWEREAVLVRRQDHTYYQGLFSTADLDSMLRNEEVQFGQHLDAARYINGRRETLNPPGRALPAAAWSLYQAGCSLRLLCPQAFSTTVWQFLAVLQEQFGSMAGSNVYLTPPNSQGFAPHYDDIEAFVLQLEGRKLWRVYRPRVPTEELALTSSPNFSQDDLGEPVLQTVLEPGDLLYFPRGFIHQAECQDGVHSLHLTLSTYQRNTWGDFLEAILPLAVQAAMEENVEFRRGLPRDFMDYMGAQHSDSKDPRRTAFMEKVRVLVARLGHFAPVDAVADQRAKDFIHDSLPPVLTDRERALSVYGLPIRWEAGEPVNVGAQLTTETEVHMLQDGIARLVGEGGHLFLYYTVENSRVYHLEEPKCLEIYPQQADAMELLLGSYPEFVRVGDLPCDSVEDQLSLATTLYDKGLLLTKMPLALN	19.11 ± 6.3	0.34 ± 0.05	–	–
MINA53 (Homo sapiens) (protein) MPKKAKPTGSGKEEGPAPCKQMKLEAAGGPSALNFDSPSSLFESLISPIKTETFFKEFWEQKPLLIQRDDPALATYYGSLFKLTDLKSLCSRGMYYGRDVNVCRCVNGKKKVLNKDGKAHFLQLRKDFDQKRATIQFHQPQRFKDELWRIQEKLECYFGSLVGSNVYITPAGSQGLPPHYDDVEVFILQLEGEKHWRLYHPTVPLAREYSVEAEERIGRPVHEFMLKPGDLLYFPRGTIHQADTPAGLAHSTHVTISTYQNNSWGDFLLDTISGLVFDTAKEDVELRTGIPRQLLLQVESTTVATRRLSGFLRTLADRLEGTKELLSSDMKKDFIMHRLPPYSAGDGAELSTPGGKLPRLDSVVRLQFKDHIVLTVLPDQDQSDEAQEKMVYIYHSLKNSRETHMMGNEEETEFHGLRFPLSHLDALKQIWNSPAISVKDLKLTTDEEKESLVLSLWTECLIQVV	–	–	10.5 ± 5.5	0.36 ± 0.1
